Measurements: patent publication US20220088118A1 (Bicycle, published 2022)
Numbered stars: 1 amine (or outer) side, 2 acyl side, 3 side chain; on linkers, the order of the positions; unused ones are H or OH. Bridge positions count the residues as written; N and C are the ends. Ends that are not written are not given here. TATA = O=C(CC[*:1])N1CN(C(=O)CC[*:2])CN(C(=O)CC[*:3])C1

What was measured:
[1] = target: T1, human carbonic anhydrase IX (human, UniProt Q16790 38-414); assay: competition fluorescence polarisation, fluorescent ligand (SEQ ID NO: 18)-Sar6-K(FI)
[2] = target: T1, human carbonic anhydrase IX; assay: cell-based or functional assay

| Binder | Ki [1] [nM] | Enzyme IC50 [2] [nM] |
| --- | --- | --- |
| ACLSHCLWVDGWVCA (linker 2-6-14 via TATA) [61-31-00-N001] | 326 | – |
| ACHAHCLWVDGWVCA (linker 2-6-14 via TATA) [61-30-00-N001] | 103 | – |
| ACANNCIWVDGWVCA (linker 2-6-14 via TATA) [61-30-03-N001] | 158 | – |
| ACTETCIWVDGWVCA (linker 2-6-14 via TATA) [61-30-02-N001] | 193 | – |
| ACGRCTWVDGWICA (linker 2-5-13 via TATA) [61-27-00-N001] | 1610 | – |
| ACVDCVWVDGWVCA (linker 2-5-13 via TATA) [61-25-03-N001] | 70.5 | – |
| ACVECWADGWVNCA (linker 2-5-13 via TATA) [61-29-00-N001] | 129 | – |
| ACSSECIWVDGWVCA (linker 2-6-14 via TATA) [61-30-01-N001] | 99.5 | 1330 |
| ACGDCIWVDGWVCA (linker 2-5-13 via TATA) [61-25-01-N001] | 26.5 | 939 |
| ACGLCIWVDGWVCA (linker 2-5-13 via TATA) [61-26-00-N001] | 51 | – |
| ACRDCIWVDGWVCA (linker 2-5-13 via TATA) [61-25-02-N001] | 30 | – |
| ACTDCIWVDGWMCA (linker 2-5-13 via TATA) [61-28-00-N001] | 442 | – |
| ACGACTWADGWVCA (linker 2-5-13 via TATA) [61-25-00-N001] | 2280 | – |
